Where a chain is given by its changes, count along the chain named.
B1: AVP07-71 anti-HER2 scFv (Cys at Kabat L8 and L12, CDR3H cysteines removed, N-terminal serine) (scFv)
scFv: SVQLVQSGAEVKKPGESLKISCKGSGYSFTSYWIAWVRQMPGKGLEYMGLIYPGDSDTKYSPSFQGQVTISVDKSVSTAYLQWSSLKPSDSAVYFCARHDVGYASSSNAAKWPEYFQHWGQGTLVTVSSGGGGSGGGGSGGGGSQSVLTQPCSSCAAPGQKVTISCSGSSSNIGNNYVSWYQQLPGTVPKLLIYGHTNRPAGVPDRFSGSKSGTSASLAISGFRSEDEADYYCAAWDDSLSGWVFGGGTKLTVLG
notes: Monomeric scFv, unconjugated
B2: AVP07-63 anti-HER2 diabody (Cys at Kabat L8 and L12, CDR3H cysteines removed, N-terminal serine; Myc+(His)6 tag) (other)
chain: SVQLVQSGAEVKKPGESLKISCKGSGYSFTSYWIAWVRQMPGKGLEYMGLIYPGDSDTKYSPSFQGQVTISVDKSVSTAYLQWSSLKPSDSAVYFCARHDVGYASSSNAAKWPEYFQHWGQGTLVTVSSGGGGSQSVLTQPCSSCAAPGQKVTISCSGSSSNIGNNYVSWYQQLPGTVPKLLIYGHTNRPAGVPDRFSGSKSGTSASLAISGFRSEDEADYYCAAWDDSLSGWVFGGGTKLTVLG
notes: Diabody
B3: AVP07-63-PEG24 L8-L12 Diabody (other)
VH-linker-VL polypeptide of the diabody: B2 chain
modifications: engineered cysteines at Kabat L8 and L12 (VL FR1) conjugated with maleimide-PEG24-methoxy
notes: also called PEGylated AVP07-63
B4: AVP07-68 anti-HER2 diabody (Cys at Kabat L8 and L12, CDR3H cysteines removed, N-terminal serine; (His)6 tag) (other)
chain: B2 chain
notes: Diabody; It is identical to AVP07-63 except that it carries only the C-terminal (His)6 tag
B5: AVP07-17 anti-HER2 diabody (other)
chain: B2 chain with S1Q, A104C, A109C, C142P, S144V, C145S
notes: Diabody of two VH-Gly4Ser-VL chains from a human anti-HER2 mAb, with a lambda VL; also called AVP07-17 Avibody

What was measured:
[1] = molecular target: T1, recombinant HER2 ectodomain (UniProt P04626 23-652, limits assumed); assay: column shift assay: size exclusion chromatography of the Avibody with and without soluble antigen (recombinant HER2 ectodomain), A280
T1 construct: extracellular domain

[2] = molecular target: T1, recombinant HER2 ectodomain; assay: column shift assay: size exclusion chromatography of the PEG24 conjugate with and without soluble antigen (recombinant HER2 ectodomain), A280
[3] = molecular target: T1, recombinant HER2 ectodomain; assay: column shift assay: size exclusion chromatography of the Avibody with and without soluble antigen (recombinant HER2 ectodomain), A280; remark: listed apart in the source

Row | Binder | binding result [1] | also measured
1 | B1 | binds | –
2 | B2 | binds | –
3 | B3 | – | binding result [2]: binds
4 | B4 | – | binding result [3]: binds
5 | B5 | binds | –
